In patent publication US7588931B2, “High arachidonic acid producing strains of Yarrowia lipolytica” (E. I. du Pont de Nemours and Company, priority 2004, dated 2009):

B1: FBAIN: fructose-bisphosphate aldolase + intron promoter, SEQ ID NO:162 (nucleic acid, listed as Yarrowia lipolytica)
DNA: AAATTGCCCCGGAGAAGACGGCCAGGCCGCCTAGATGACAAATTCAACAACTCACAGCTGACTTTCTGCCATTGCCACTAGGGGGGGGCCTTTTTATATGGCCAAGCCAAGCTCTCCACGTCGGTTGGGCTGCACCCAACAATAAATGGGTAGGGTTGCACCAACAAAGGGATGGGATGGGGGGTAGAAGATACGAGGATAACGGGGCTCAATGGCACAAATAAGAACGAATACTGCCATTAAGACTCGTGATCCAGCGACTGACACCATTGCATCATCTAAGGGCCTCAAAACTACCTCGGAACTGCTGCGCTGATCTGGACACCACAGAGGTTCCGAGCACTTTAGGTTGCACCAAATGTCCCACCAGGTGCAGGCAGAAAACGCTGGAACAGCGTGTACAGTTTGTCTTAACAAAAAGTGAGGGCGCTGAGGTCGAGCAGGGTGGTGTGACTTGTTATAGCCTTTAGAGCTGCGAAAGCGCGTATGGATTTGGCTCATCAGGCCAGATTGAGGGTCTGTGGACACATGTCATGTTAGTGTACTTCAATCGCCCCCTGGATATAGCCCCGACAATAGGCCGTGGCCTCATTTTTTTGCCTTCCGCACATTTCCATTGCTCGGTACCCACACCTTGCTTCTCCTGCACTTGCCAACCTTAATACTGGTTTACATTGACCAACATCTTACAAGCGGGGGGCTTGTCTAGGGTATATATAAACAGTGGCTCTCCCAATCGGTTGCCAGTCTCTTTTTTCCTTTCTTTCCCCACAGATTCGAAATCTAAACTACACATCACACAATGCCTGTTACTGACGTCCTTAAGCGAAAGTCCGGTGTCATCGTCGGCGACGATGTCCGAGCCGTGAGTATCCACGACAAGATCAGTGTCGAGACGACGCGTTTTGTGTAATGACACAATCCGAAAGTCGCTAGCAACACACACTCTCTACACAAACTAACCCAGCTCTCC
modifications: misc_feature: Promoter FBAIN
B2: FBA: Y. lipolytica fructose-bisphosphate aldolase promoter, SEQ ID NO:161 (nucleic acid, listed as Yarrowia lipolytica)
DNA: TAAACAGTGTACGCAGTACTATAGAGGAACAATTGCCCCGGAGAAGACGGCCAGGCCGCCTAGATGACAAATTCAACAACTCACAGCTGACTTTCTGCCATTGCCACTAGGGGGGGCCTTTTTATATGGCCAAGCCAAGCTCTCCACGTCGGTTGGGCTGCACCCAACAATAAATGGGTAGGGTTGCACCAACAAAGGGATGGGATGGGGGGTAGAAGATACGAGGATAACGGGGCTCAATGGCACAAATAAGAACGAATACTGCCATTAAGACTCGTGATCCAGCGACTGACACCATTGCATCATCTAAGGGCCTCAAAACTACCTCGGAACTGCTGCGCTGATCTGGACACCACAGAGGTTCCGAGCACTTTAGGTTGCACCAAATGTCCCACCAGGTGCAGGCAGAAAACGCTGGAACAGCGTGTACAGTTTGTCTTAACAAAAAGTGAGGGCGCTGAGGTCGAGCAGGGTGGTGTGACTTGTTATAGCCTTTAGAGCTGCGAAAGCGCGTATGGATTTGGCTCATCAGGCCAGATTGAGGGTCTGTGGACACATGTCATGTTAGTGTACTTCAATCGCCCCCTGGATATAGCCCCGACAATAGGCCGTGGCCTCATTTTTTTGCCTTCCGCACATTTCCATTGCTCGGTACCCACACCTTGCTTCTCCTGCACTTGCCAACCTTAATACTGGTTTACATTGACCAACATCTTACAAGCGGGGGGCTTGTCTAGGGTATATATAAACAGTGGCTCTCCCAATCGGTTGCCAGTCTCTTTTTTCCTTTCTTTCCCCACAGATTCGAAATCTAAACTACACATCACACAATGCCTGTTACTGACGTCCTTAAGCGAAAGTCCGGTGTCATCGTCGGCGACGATGTCCGAGCCGTGAGTATCCACGACAAGATCAGTGTCGAGACGACGCGTTTTGTGTAATGACACAATCCGAAAGTCGCTAGCAACACACACTCTCTACACAAACTAACCCAGCTCTCC
modifications: misc_feature: Promoter FBA

Tests used:
[1] = system: β-glucuronidase (GUS) reporter; test: Comparative analysis of promoters by fluorometric assay of GUS expression; type: cell-based, Yarrowia lipolytica; conditions: for GUS activity relative to the GPD promoter: ATCC #76982 strains, FIG. 6A
Description: GUS activity was also assayed by fluorometric determination of the production of 4-methylumbelliferone (4-MU) from the corresponding substrate β-glucuronide (Jefferson, R. A. Plant Mol. Biol. Reporter 5:387-405 (1987)).
Yarrowia lipolytica ATCC #76982 strains containing plasmids pY5-30, PYZGDG, PYZGMG, pDMW212 and pDMW214 were grown from single colonies in 3 mL MM (as described above) at 30° C. to an OD600˜1.0. Then, the 3 mL cultures were each added to a 500 mL flask containing 50 mL MM and grown in a shaking incubator at 30° C. for about 24 hrs. The cells were collected by centrifugation, resuspended in Promega Cell Lysis Buffer and lysed using the BIO 101 Biopulverizer system (Vista, Calif.). After centrifugation, the supernatants were removed and kept on ice.
Similarly, Y. lipolytica strain Y2034 containing plasmids pY5-30, pYAT-GUS, pYGPAT-GUS and pDMW214 constructs, respectively, were grown from single colonies in 10 mL SD medium at 30° C. for 48 hrs to an OD600˜5.0. Two mL of each culture was collected for GUS activity assays, as described below, while 5 mL of each culture was switched into HGM.
Specifically, cells from the 5 mL aliquot were collected by centrifugation, washed once with 5 mL of HGM and resuspended in HGM. The cultures in HGM were then grown in a shaking incubator at 30° C. for 24 hrs. Two mL of each HGM culture were collected for the GUS activity assay, while the remaining culture was allowed to grow for an additional 96 hrs before collecting an additional 2 mL of each culture for the assay.
Each 2 mL culture sample in SD medium was resuspended in 1 mL of 0.5× cell culture lysis reagent (Promega). Resuspended cells were mixed with 0.6 mL of glass beads (0.5 mm diameter) in a 2.0 mL screw cap tube with a rubber O-ring. The cells were then homogenized in a Biospec mini beadbeater (Bartlesville, Okla.) at the highest setting for 90 sec. The homogenization mixtures were centrifuged for 2 min at 14,000 rpm in an Eppendof centrifuge to remove cell debris and beads. The supernatant was used for GUS assay and protein determination.
For each fluorometric assay, 100 μl of extract was added to […] of GUS assay buffer (2 mM 4-methylumbelliferyl-β-D-glucuronide (“MUG”) in extraction buffer) or 200 μl of extract was added to 800 μl of GUS assay buffer. The mixtures were placed at 37° C. Aliquots of 100 μl were taken at 0, 30 and 60 min time points and added to 900 μl of stop buffer (1 M Na2CO3). Each time point was read using a CytoFluor Series 4000 Fluorescence Multi-Well Plate Reader (PerSeptive Biosystems, Framingham, Mass.) set to an excitation wavelength of 360 nm and an emission wavelength of 455 nm. Total protein concentration of each sample was determined using 10 μl of extract and 200 μl of BioRad Bradford reagent or 20 μl of extract and 980 μl of BioRad Bradford reagent (Bradford, M. M. Anal. Biochem. 72:248-254 (1976)). GUS activity was expressed as nmoles of 4-MU per minute per mg of protein.

[2] = system: β-glucuronidase (GUS) reporter; test: Relative promoter activity rank from comparative GUS reporter studies (histochemical, fluorometric and/or Real Time PCR); type: cell-based, Yarrowia lipolytica; design: key: a ‘1’ corresponds to the promoter with lowest activity; a ‘7’ corresponds to the promoter with highest activity; conditions: relative to other promoters
Procedure, shortened: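 GUS activity from each promoter construct was measured by histochemical and/or fluorometric assays and/or Real Time PCR. Promoters were ranked relative to one another, from 1 (lowest activity) to 7 (highest activity).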

Molecule | GUS activity relative to the GPD promoter [1] | GUS activity ([1]; strain Y2034, 24 hr, HGM) | GUS activity ([1]; strain Y2034, 48 hr, SD) | GUS activity ([1]; strain Y2034, 120 hr HGM) | reduction of promoter activity ([1]; switched from SD medium into HGM for 24 hrs) [%] | Activity “Rank” [2]
B1 | about 6.6 times | 30.694 nmoles of 4-MU per minute per mg of protein | 43.333 nmoles of 4-MU per minute per mg of protein | 17.200 nmoles of 4-MU per minute per mg of protein | 30 | 7
B2 | 2.2 times |  |  |  |  | 4
